Experiments:
[1] = biological target: T1, human iRhom2 (inactive rhomboid protein 2, isoform 1), endogenously expressed on human cells (human, UniProt Q6PJF5 1-856); experiment: cell-based or functional assay
T1 sequence: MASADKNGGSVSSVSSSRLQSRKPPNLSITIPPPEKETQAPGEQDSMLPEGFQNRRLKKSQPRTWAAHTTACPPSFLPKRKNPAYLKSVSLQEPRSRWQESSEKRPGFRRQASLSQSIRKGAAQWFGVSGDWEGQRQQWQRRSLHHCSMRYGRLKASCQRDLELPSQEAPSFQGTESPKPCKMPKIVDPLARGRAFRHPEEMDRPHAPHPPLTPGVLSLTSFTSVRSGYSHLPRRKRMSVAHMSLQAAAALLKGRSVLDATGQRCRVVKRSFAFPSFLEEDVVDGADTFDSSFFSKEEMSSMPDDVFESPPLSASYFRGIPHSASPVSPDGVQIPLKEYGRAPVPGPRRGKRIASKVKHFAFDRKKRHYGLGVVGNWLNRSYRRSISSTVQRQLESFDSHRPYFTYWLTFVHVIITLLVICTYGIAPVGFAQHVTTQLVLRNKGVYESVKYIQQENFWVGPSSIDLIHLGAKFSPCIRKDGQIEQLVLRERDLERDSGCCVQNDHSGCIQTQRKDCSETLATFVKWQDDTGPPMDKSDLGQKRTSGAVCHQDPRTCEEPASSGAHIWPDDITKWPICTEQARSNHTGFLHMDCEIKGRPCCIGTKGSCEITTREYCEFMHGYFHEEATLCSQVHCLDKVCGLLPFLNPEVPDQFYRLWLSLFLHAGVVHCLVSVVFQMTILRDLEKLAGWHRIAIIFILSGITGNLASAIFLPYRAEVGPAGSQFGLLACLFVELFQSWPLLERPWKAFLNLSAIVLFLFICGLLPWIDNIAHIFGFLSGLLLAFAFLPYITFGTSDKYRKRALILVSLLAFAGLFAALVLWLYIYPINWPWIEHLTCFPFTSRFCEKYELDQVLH

[2] = biological target: T2, dog iRhom2 full length wild type, C-terminally tagged with 3 consecutive copies of the T7 epitope (dog, UniProt Q00M95 1-827); experiment: FACS, MEF-DKO-Dog-iR2-FL-WT-T7 cells
T2 construct: whole, on cells; also called Dog-iR2-FL-WT-T7
T2 sequence: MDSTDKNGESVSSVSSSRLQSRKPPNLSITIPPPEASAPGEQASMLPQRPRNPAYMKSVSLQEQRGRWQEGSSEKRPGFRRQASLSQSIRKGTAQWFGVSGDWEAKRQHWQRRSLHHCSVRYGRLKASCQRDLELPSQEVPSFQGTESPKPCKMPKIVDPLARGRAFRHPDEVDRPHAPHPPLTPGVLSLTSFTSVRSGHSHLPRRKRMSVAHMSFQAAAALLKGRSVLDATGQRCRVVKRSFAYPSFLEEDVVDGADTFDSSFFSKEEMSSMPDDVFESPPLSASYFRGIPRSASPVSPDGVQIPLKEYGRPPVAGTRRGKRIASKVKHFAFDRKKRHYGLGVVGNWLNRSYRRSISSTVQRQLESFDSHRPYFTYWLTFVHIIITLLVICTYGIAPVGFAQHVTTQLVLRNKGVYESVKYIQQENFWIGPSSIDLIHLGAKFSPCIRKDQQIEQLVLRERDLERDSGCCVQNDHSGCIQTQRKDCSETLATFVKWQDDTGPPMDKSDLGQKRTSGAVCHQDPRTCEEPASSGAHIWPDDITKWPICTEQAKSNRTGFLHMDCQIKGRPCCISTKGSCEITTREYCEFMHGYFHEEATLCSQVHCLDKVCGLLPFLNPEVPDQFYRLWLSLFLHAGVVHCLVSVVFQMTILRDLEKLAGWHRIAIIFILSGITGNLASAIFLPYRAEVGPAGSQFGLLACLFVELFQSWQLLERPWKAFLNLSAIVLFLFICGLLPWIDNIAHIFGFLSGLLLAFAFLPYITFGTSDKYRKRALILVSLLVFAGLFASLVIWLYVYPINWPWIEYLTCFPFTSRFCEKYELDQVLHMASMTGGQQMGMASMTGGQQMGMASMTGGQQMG
Method: In brief, immortalized MEF-DKO-EV control cells, MEF-DKO-rhesus-iR2-FL-WT-T7 cells, MEF-DKO-cyno-iR2-FL-WT-T7 cells, MEF-DKO-dog-iR2-FL-WT-T7 cells and MEF-DKO-rabbit-iR2-FL-WT-T7 cells, as well as their respective iRhom1 counterparts, were harvested with 10 mM EDTA in PBS, washed and resuspended in FACS buffer (PBS, 3% FBS, 0.05% sodium azide), and seeded in Nunc U-bottom 96-well plates (Thermo Fisher Scientific, USA) at approximately 3×10⁵ cells per well. To pellet cells and remove supernatants, the plates were centrifuged at 1,500 rpm and 4° C. for 3 minutes. For primary staining, cells were resuspended in 100 μl per well of either FACS buffer alone (controls), mouse monoclonal anti-T7 IgG (Merck Millipore, USA) at 3 μg/ml FACS buffer or the antibodies of the present disclosure also at 3 μg/ml FACS buffer and incubated on ice for 1 hour. Afterwards, plates were centrifuged at 1,500 rpm and 4° C. for 3 minutes and washed twice with 200 μl per well of FACS buffer. For secondary staining, cells were spun down and resuspended in 100 μl per well of PE-conjugated goat anti-mouse IgG F(ab′)2 detection fragment (Dianova, Germany) diluted 1:100 in FACS buffer. Protected from light, the cell suspensions were incubated on ice for 1 hour. Plates were then centrifuged at 1,500 rpm and 4° C. for 3 minutes and washed three times with 200 μl per well of FACS buffer. Finally, cells were resuspended in 150 μl per well of FACS buffer and analyzed using a BD Accuri™ C6 Plus flow cytometer (Becton Dickinson, Germany).

B1: antibody 44 (antibody, V domains shown)
VH: QVTLKESGPGILQPSQTLSLTCSFSGFSLSTFGMGVGWIRQPSEKGLEWLAHIWWDDDKYYNPALKSRLTISKDTSKNQIFLKITNVDTAETATYYCSRIGNYGSNYWYFDVWGTGTTVTVSS
VL: QIVLTQSPAVMSASPGEKVTMTCTASSSVYYMYWYQQTPGSSPRLLIYDTSNLASGVPVRFSGSGSGTSYSLTISRMEAEDAATYYCQQWNTYPLTFGAGTKLELK
notes: Mouse IgG, kappa light chain; also called clone #44; m44
What does the source list for B1?
inhibition of LPS-induced release of TNFα from THP-1 cells, 10 µg/ml, antibody purified from hybridoma [1]: 32.2 % inhibition; inhibition of LPS-induced release of TNFα from THP-1 cells, recombinant antibody [1]: 73.2 % inhibition; inhibition of PMA-induced release of HB-EGF from THP-1 cells, 3 µg/ml [1]: 67.5 % inhibition; inhibition of PMA-induced release of HB-EGF from U-937 cells [1]: 100 % inhibition; inhibition of PMA-induced release of IL-6R from THP-1 cells, 1 µg/ml [1]: 73 % inhibition; inhibition of PMA-induced release of IL-6R from U-937 cells, 1 µg/ml [1]: 71.8 % inhibition; inhibition of PMA-induced release of IL-6R from U-937 cells, 3 µg/ml [1]: 82 % inhibition; inhibition of PMA-induced release of TGFα from PC3 cells, 1 µg/ml [1]: 14.1 % inhibition; inhibition of PMA-induced release of TNFα from U-937 cells, 1 µg/ml [1]: 76.5 % inhibition; inhibition of PMA-induced release of TNFα from U-937 cells, 3 µg/ml [1]: 86.3 % inhibition; binding result [2]: binds

B2: antibody 42 (antibody, V domains shown)
VH: QVTLKESGPGILQPSQTLSLTCSLSGFSLSTFGRGVGWIRQPSGKGLEWLAHIWWDDEKYYNPALKSRLTISKDTSKNQVFLRIANVDTADTATYYCARIQNYGSNYWYFDVWGTGTTVTVSS
VL: LIVLTQSPAIMSASPGEKVTMTCGATSRISYMFWYQQKPGSSPRVLIYDTSNLASGVPVRFSGSGSGTSYSLTISRVEAEDVATYYCQQWNSYPLTFGAGTKLELK
notes: Mouse IgG, kappa light chain; also called clone #42; m42
Which results are given for B2?
inhibition of LPS-induced release of TNFα from PBMCs of healthy donors, 1 µg/ml [1]: 77 % inhibition; inhibition of LPS-induced release of TNFα from THP-1 cells, 10 µg/ml, antibody purified from hybridoma [1]: 76.7 % inhibition; inhibition of LPS-induced release of TNFα from THP-1 cells, recombinant antibody [1]: 75.9 % inhibition; inhibition of LPS-induced release of TNFα from human macrophages of healthy donors [1]: 93.2 % inhibition; inhibition of PMA-induced release of HB-EGF from PBMCs of healthy donors, 1 µg/ml [1]: 77.6 % inhibition; inhibition of PMA-induced release of HB-EGF from THP-1 cells, 3 µg/ml [1]: 76.6 % inhibition; inhibition of PMA-induced release of HB-EGF from U-937 cells [1]: 104 % inhibition; inhibition of PMA-induced release of IL-6R from PBMCs of healthy donors, 1 µg/ml [1]: 85 % inhibition; inhibition of PMA-induced release of IL-6R from THP-1 cells, 1 µg/ml [1]: 85.9 % inhibition; inhibition of PMA-induced release of IL-6R from U-937 cells, 1 µg/ml [1]: 80.8 % inhibition; inhibition of PMA-induced release of IL-6R from U-937 cells, 3 µg/ml [1]: 84.4 % inhibition; inhibition of PMA-induced release of TGFα from PC3 cells, 1 µg/ml [1]: 14.3 % inhibition; inhibition of PMA-induced release of TNFα from U-937 cells, 1 µg/ml [1]: 94.5 % inhibition; inhibition of PMA-induced release of TNFα from U-937 cells, 3 µg/ml [1]: 94.1 % inhibition; binding result [2]: binds

B3: antibody 22 (antibody, V domains shown)
VH: QVTLKESGPGILQPSQTLSLTCSFSGFSLSTFGMGVGWIRQPSGKGLEWLAHIWWDDEKYYNSALKSRLTISKATSKNQVFLKIANVDTADTATYYCARISNYGSNYWYFNVWGTGTTVTVSS
VL: QVVLTQSPALMSASPGEKVTMTCSAGSSVSYMYWYQQKPGSSPRVLIYDTSNLASGVPARFTGSGSGTSYSLTISRMEAEDAATYYCQQWNSYPLTFGAGTKLELK
notes: Mouse IgG, kappa light chain; also called clone #22; m22
What does the source list for B3?
inhibition of LPS-induced release of TNFα from PBMCs of healthy donors, 1 µg/ml [1]: 72.8 % inhibition; inhibition of LPS-induced release of TNFα from THP-1 cells, 10 µg/ml, antibody purified from hybridoma [1]: 78.8 % inhibition; inhibition of LPS-induced release of TNFα from THP-1 cells, recombinant antibody [1]: 78.4 % inhibition; inhibition of LPS-induced release of TNFα from human macrophages of healthy donors [1]: 78.8 % inhibition; inhibition of PMA-induced release of HB-EGF from PBMCs of healthy donors, 1 µg/ml [1]: 56.5 % inhibition; inhibition of PMA-induced release of HB-EGF from THP-1 cells, 3 µg/ml [1]: 77.7 % inhibition; inhibition of PMA-induced release of HB-EGF from U-937 cells [1]: 101 % inhibition; inhibition of PMA-induced release of IL-6R from PBMCs of healthy donors, 1 µg/ml [1]: 79.3 % inhibition; inhibition of PMA-induced release of IL-6R from THP-1 cells, 1 µg/ml [1]: 67.4 % inhibition; inhibition of PMA-induced release of IL-6R from U-937 cells, 1 µg/ml [1]: 74.5 % inhibition; inhibition of PMA-induced release of IL-6R from U-937 cells, 3 µg/ml [1]: 79 % inhibition; inhibition of PMA-induced release of TGFα from PC3 cells, 1 µg/ml [1]: 12.7 % inhibition; inhibition of PMA-induced release of TNFα from U-937 cells, 1 µg/ml [1]: 86.1 % inhibition; inhibition of PMA-induced release of TNFα from U-937 cells, 3 µg/ml [1]: 93.1 % inhibition; binding result [2]: binds

Source: US20240174744A1 (SCIRHOM, published 2024)
